Laboratory results published in article PMC2836954 (Molecular Biology of the Cell, 2010).

B1: EGFP-PKD2-WT (protein kinase D2, wild type) (enzyme, UniProt Q9BZL6 1-878, looked up)
chain: MATAPSYPAGLPGSPGPGSPPPPGGLELQSPPPLLPQIPAPGSGVSFHIQIGLTREFVLLPAASELAHVKQLACSIVDQKFPECGFYGLYDKILLFKHDPTSANLLQLVRSSGDIQEGDLVEVVLSASATFEDFQIRPHALTVHSYRAPAFCDHCGEMLFGLVRQGLKCDGCGLNYHKRCAFSIPNNCSGARKRRLSSTSLASGHSVRLGTSESLPCTAEELSRSTTELLPRRPPSSSSSSSASSYTGRPIELDKMLLSKVKVPHTFLIHSYTRPTVCQACKKLLKGLFRQGLQCKDCKFNCHKRCATRVPNDCLGEALINGDVPMEEATDFSEADKSALMDESEDSGVIPGSHSENALHASEEEEGEGGKAQSSLGYIPLMRVVQSVRHTTRKSSTTLREGWVVHYSNKDTLRKRHYWRLDCKCITLFQNNTTNRYYKEIPLSEILTVESAQNFSLVPPGTNPHCFEIVTANATYFVGEMPGGTPGGPSGQGAEAARGWETAIRQALMPVILQDAPSAPGHAPHRQASLSISVSNSQIQENVDIATVYQIFPDEVLGSGQFGVVYGGKHRKTGRDVAVKVIDKLRFPTKQESQLRNEVAILQSLRHPGIVNLECMFETPEKVFVVMEKLHGDMLEMILSSEKGRLPERLTKFLITQILVALRHLHFKNIVHCDLKPENVLLASADPFPQVKLCDFGFARIIGEKSFRRSVVGTPAYLAPEVLLNQGYNRSLDMWSVGVIMYVSLSGTFPFNEDEDINDQIQNAAFMYPASPWSHISAGAIDLINNLLQVKMRKRYSVDKSLSHPWLQEYQTWLDLRELEGKMGERYITHESDDARWEQFAAEHPLPGSGLPTDRDLGGACPPQDHDMQGLAERISVL

Tests used:
Assay in all cases: pull-down
[1] = target: the active ARF1 mutants ARF-Q71L and ARF1-Δ17-Q71L
GST-ARF1-Q71L = GST-ARF1-Q71L (human, UniProt P84077 1-181, Q71L)
Sequence of GST-ARF1-Q71L (P84077 whole entry Q71L): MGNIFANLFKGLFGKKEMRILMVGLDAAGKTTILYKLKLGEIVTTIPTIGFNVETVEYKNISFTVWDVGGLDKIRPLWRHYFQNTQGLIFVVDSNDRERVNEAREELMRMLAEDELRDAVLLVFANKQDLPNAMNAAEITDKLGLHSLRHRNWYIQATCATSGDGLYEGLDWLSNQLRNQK

GST-ARF1 Δ17-Q71L = GST-ARF1 Δ17-Q71L (human, UniProt P84077 18-181, Q71L)
Sequence of GST-ARF1 Δ17-Q71L (P84077 18-181 Q71L): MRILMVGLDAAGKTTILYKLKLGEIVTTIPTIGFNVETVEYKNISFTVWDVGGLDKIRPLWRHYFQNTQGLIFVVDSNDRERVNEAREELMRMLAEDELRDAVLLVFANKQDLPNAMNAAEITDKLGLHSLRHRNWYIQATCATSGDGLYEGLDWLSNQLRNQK

Molecule | fold binding compared with wild-type or dominant-negative ARF1 [1] | fold binding compared with ARF1-WT or ARF1-T31N (GST-ARF1-Q71L) | fold binding compared with ARF1-WT (GST-ARF1 Δ17-Q71L)
His-tagged C1b domain of PKD2 (domain or fragment) | 1.5 to 1.75 fold | – | –
B1 | – | 2 fold | 2 fold
